Data on four substances can be found in paper PMC7076219.

Experiment [1] has as its target E-S6-IgG (mouse E-selectin extracellular region fused to the Fc region of human IgG1, from silkworm) (mouse | human) (UniProt Q00690). The experiment in a line: native gel or EMSA; purified E-selectin proteins in native PAGE sample buffer on a 10% TBE gel, Tris-glycine buffer, Coomassie stain. A general note: In EMSA bound probe runs differently from free probe, usually more slowly.

The target of experiment [2] is ligands on KG1a cells (human (endogenous in KG1a)). The experiment is described as follows: flow cytometry on cells; KG1a cells stained with 10 ug/ml E-selectin protein in HBSS with 5% FBS and 2 mM CaCl2, 4 °C, 20 min; detected by Strep-tag II mAb and PE anti-mouse IgG1. For orientation: In flow cytometry, cells or beads pass a laser one at a time.
Experiment [3] concerns the target CD44/HCELL (hematopoietic cell E- and/or L-selectin ligand) (human (endogenous in KG1a)) (UniProt P16070). The experiment in a line: SPR; Biacore T-100, CM5 chip, 25 °C; CD44/HCELL captured from KG1a lysate by immobilised Hermes-3; E-selectin proteins injected in sequential concentrations at 20 ul/min, 90 s each; running buffer 50 mM Tris pH 8.0, 1% Triton X-100, 50 mM NaCl, 1 mM CaCl2; isotype control subtracted; kon calculated from KD and koff.

CD44/HCELL (hematopoietic cell E- and/or L-selectin ligand) (human (endogenous in KG1a)), sequence (P16070 other isoform, or with tags, fused parts or gaps): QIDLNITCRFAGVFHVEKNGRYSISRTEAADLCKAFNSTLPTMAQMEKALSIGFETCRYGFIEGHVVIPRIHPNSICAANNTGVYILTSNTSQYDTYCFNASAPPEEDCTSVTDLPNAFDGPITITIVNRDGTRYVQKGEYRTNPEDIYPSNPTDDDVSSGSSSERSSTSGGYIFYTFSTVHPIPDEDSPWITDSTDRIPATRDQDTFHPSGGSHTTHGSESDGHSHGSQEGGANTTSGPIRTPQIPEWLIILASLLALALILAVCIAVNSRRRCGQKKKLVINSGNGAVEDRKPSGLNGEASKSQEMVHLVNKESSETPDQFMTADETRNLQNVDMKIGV

The substance “E-S6-IgG (mouse E-selectin extracellular region fused to the Fc region of human IgG1, from silkworm) (from UniProt Q00690 22-557) (Fc fusion)” yielded a stoichiometry N in experiment [1] of 2. Also, the percent of the live KG1a population bound in experiment [2] was determined as 96%. In experiment [3], the Kd was 0.17 µM and the kon was 950 M⁻¹ s⁻¹.
“E-S2 (truncated mouse E-selectin with only the first two SCR domains) (domain or fragment)”: in experiment [2], the fluorescence signal, fold lower than E-S6 is 3 fold and the percent of the live KG1a population bound was 76%. For the same substance, in experiment [3], the Kd was 5.68 µM and the kon was 30 M⁻¹ s⁻¹.
With “E-S0 (mouse E-selectin lectin and EGF domains, no SCR domains) (domain or fragment)”, in experiment [2], the percent of the live KG1a population bound came to 43%. Also, in experiment [3], the Kd is 17.2 µM and the kon is 4 M⁻¹ s⁻¹.
Consider “E-S2-A28H (E-S2 with the A28H mutation in the lectin domain) (domain or fragment)”, for which, in experiment [2], the fluorescence signal (geometric mean) came to 1690; the fluorescence signal, fold lower than E-S6 came to 2 fold; the percent of the live KG1a population bound was 84%. Further, in experiment [3], the Kd is 2.5 µM and the kon was 80 M⁻¹ s⁻¹.

As usually defined, the stoichiometry N is a count of units in the complex or per binding partner. What is called Kd is the constant that tells how readily two partners part at equilibrium. What is called kon is a measure of how fast the partners come together.
